# Source: US20220177569A1 (Novartis, published 2022)
# T1: Recombinant marmoset IL-18 (marmoset, UniProt U3CWC9 37-190)
# T1 construct: also called marIL-18
# T1 sequence: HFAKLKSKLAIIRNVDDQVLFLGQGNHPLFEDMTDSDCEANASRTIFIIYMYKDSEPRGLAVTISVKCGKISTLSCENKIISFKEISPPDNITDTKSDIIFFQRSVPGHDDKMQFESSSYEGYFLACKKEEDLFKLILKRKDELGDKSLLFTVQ
# Key:
# [1] = biological target: T2, Recombinant human IL-1β (human, UniProt P01584 117-269); test: cell-based or functional assay
# [2] = biological target: T3, Recombinant human IL-18 (human, UniProt Q14116 37-193); test: SET, simultaneous target binding, Assay B (both targets in serial dilutions in one mix)
# T3 construct: also called huIL-18; hulL-18
# Method: (§1) The plate was blocked with 50 μl/well blocking buffer (PBS containing 5% BSA) for 1 hour (h), at room temperature (RT). After washing (TBST, TBS containing 0.05% Tween 20), a volume of 30 μl/well of the equilibrated antigen- antibody mix was transferred from the polypropylene MTP to the coated MSD plate and incubated for 20 min at RT. After an additional wash step, 30 μl sulfo tag-labeled anti-IgG detection antibody (0.5 μg/ml) diluted in sample buffer were added to each well and incubated for 30 min at RT on a shaker. The MSD plate was washed and 35 μl/well MSD read buffer were added and incubated for 5 min at RT. Electrochemiluminescence (ECL) signals were generated and measured by the MSD Sector Imager 6000.
# (§2) Assay B: The equilibration process (antibody/antigen mix) was performed with both targets in serial dilutions in one mix simultaneously (constant concentration of antibody […], highest antigen conc. see above). The same mix was then analyzed for its free antibody concentration on IL18 and IL-1β coated plates as described above.
# [3] = biological target: T2, Recombinant human IL-1β; test: as above
# Method: as §1, §2
# [4] = biological target: T4, Recombinant marmoset IL-1β (marmoset, UniProt U3E018 117-268); test: as above
# T4 construct: also called marIL-1β
# Method: as §1, §2
# [5] = biological target: T2, Recombinant human IL-1β; test: SET, simultaneous target binding, Assay A (excess of the other target, IL-18)
# Method: as §1, §2
# [6] = biological target: T4, Recombinant marmoset IL-1β; test: as above
# Method: as §1, §2
# [7] = biological target: T4, Recombinant marmoset IL-1β; test: cell-based or functional assay
# [8] = biological target: T2, Recombinant human IL-1β; test: SET (solution equilibrium titration, MSD ECL), individual target binding
# Method: as §1
# [9] = biological target: T4, Recombinant marmoset IL-1β; test: as above
# Method: as §1
# [10] = biological target: T2, Recombinant human IL-1β; test: cell-based or functional assay; remark: listed apart in the source
# [11] = biological target: T3, Recombinant human IL-18; test: cell-based or functional assay
# [12] = biological target: T1, Recombinant marmoset IL-18; test: SET, simultaneous target binding, Assay B (both targets in serial dilutions in one mix)
# Method: as §1, §2
# [13] = biological target: T3, Recombinant human IL-18; test: cell-based or functional assay; remark: listed apart in the source
# [14] = biological target: T3, Recombinant human IL-18; test: SET, simultaneous target binding, Assay A (excess of the other target, IL-1β)
# Method: as §1, §2
# [15] = biological target: T1, Recombinant marmoset IL-18; test: as above
# Method: as §1, §2
# [16] = biological target: T1, Recombinant marmoset IL-18; test: cell-based or functional assay
# [17] = biological target: T3, Recombinant human IL-18; test: SET (solution equilibrium titration, MSD ECL), individual target binding
# Method: as §1
# [18] = biological target: T1, Recombinant marmoset IL-18; test: as above
# Method: as §1
binder,measurement,setting,value
"mAb2 (IL-1β antibody) (antibody, human IgG1, kappa, V domains shown) VH: QVQLVESGGGVVQPGRSLRLSCAASGFTFSVYGMNWVRQAPGKGLEWVAIIWYDGDNQYYADSVKGRFTISRDNSKNTLYLQMNGLRAEDTAVYYCARDLRTGPFDYWGQGTLVTVSS VL: EIVLTQSPDFQSVTPKEKVTITCRASQSIGSSLHWYQQKPDQSPKLLIKYASQSFSGVPSRFSGSGSGTDFTLTINSLEAEDAAAYYCHQSSSLPFTFGPGTKVDIKR","Inhibition of SEAP in HEK reporter cells stimulated simultaneously with IL-1β and IL-18, IC50; mAb2 alone",[1],30 nM
same,"Inhibition of SEAP in HEK reporter cells stimulated simultaneously with IL-1β and IL-18, IC50; mAb2 and mAb1 combined",[1],0.24 nM
same,binding result,[2],no binding (tested: highest antigen conc. huIL-18 5 nM)
same,Kd,[3],3.2 pM
same,Kd,[4],4.8 pM
same,Kd,[5],1.1 pM
same,Kd,[6],0.8 pM
same,"IL-6 prod. dermal fibroblasts IC50, Exp. B (18 pM recombinant marmoset IL-1β; marmoset cells by the reading of the header)",[7],0.138 nM
same,"IL-6 prod. dermal fibroblasts IC50, Exp. C (18 pM recombinant marmoset IL-1β; human cells by the reading of the header)",[7],0.114 nM
same,"IL-6 prod. marmoset dermal fibroblasts IC50, Exp. A (18 pM recombinant marmoset IL-1β)",[7],95 pM
same,Kd,[8],0.6 pM
same,Kd,[9],1 pM
same,IL-6 prod. PBMC IC50 (human PBMC stimulated with 60 pM recombinant human IL-1β),[10],0.29 nM
same,IL-6 prod. derm. fibrobl. IC50 (human dermal fibroblasts stimulated with 6 pM recombinant human IL-1β),[10],31 pM
"mAb1 (IL-18 antibody) (antibody, human IgG1, lambda, L234A L235A, V domains shown) VH: EVQLVQSGAEVKKPGSSVKVSCKASGGTFKSYAISWVRQAPGQGLEWMGNIIPMTGQTYYAQKFQGRVTITADESTSTAYMELSSLRSEDTAVYYCARAAYHPLVFDNWGQGTLVTVSS VL: DIVLTQPPSVSGAPGQRVTISCSGSSSNIGNHYVNWYQQLPGTAPKLLIYRNNHRPSGVPDRFSGSKSGTSASLAITGLQSEDEADYYCQSWDYSGFSTVFGGGTKLTVLG","Inhibition of SEAP in HEK reporter cells stimulated simultaneously with IL-1β and IL-18, IC50; mAb1 alone",[11],> 30 nM
same,"Inhibition of SEAP in HEK reporter cells stimulated simultaneously with IL-1β and IL-18, IC50; mAb2 and mAb1 combined",[11],0.24 nM
same,Kd,[2],0.0114 nM
same,Kd,[12],0.0263 nM
same,binding result,[3],no binding (tested: highest antigen conc. huIL-1β 0.5 nM)
same,binding result,[4],no binding (tested: highest antigen conc. marIL-1β 0.5 nM)
same,IFNγ prod. KG-1 cells IC50 (3 nM recombinant human IL-18 and 1 ng/ml human IL-12),[13],0.035 nM
same,IFNγ prod. PBMC IC50 (3 nM recombinant human IL-18 and 1 ng/ml human IL-12),[13],0.78 nM
same,Kd,[14],0.0135 nM
same,Kd,[15],0.0271 nM
same,IFNγ prod. Human PBMC IC50 (marmoset IL-18 1 nM and human IL-12 10 ng/ml),[16],6.6 nM
same,IFNγ prod. Marmoset blood IC50 (marmoset IL-18 0.3 nM and human IL-12 10 ng/ml),[16],4.7 nM
same,IFNγ prod. Marmoset blood IC50 (marmoset IL-18 3 nM and human IL-12 10 ng/ml),[16],181 nM
same,Kd,[17],9 pM
same,Kd,[18],0.021 nM
